What was measured:
[1] = biological target: T1, Permanent N-terminal CNP-34 PEG 5 kDa conjugate 14e (not fully specified)
T1 chain: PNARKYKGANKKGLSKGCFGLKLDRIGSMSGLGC

[2] = biological target: T2, Permanent N-terminal CNP-38 PEG 5 kDa conjugate 15e (not fully specified)
T2 chain: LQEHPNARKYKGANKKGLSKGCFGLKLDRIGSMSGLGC

[3] = biological target: T3, Permanent Lys26 CNP-38 PEG4x10 kDa conjugate 12g (not fully specified)
T3 chain: T2 chain

Measured: half life norm. [h] (in vitro NEP digest)

B1: recombinant human Neutral Endopeptidase (NEP) (protein)
chain: YDDGICKSSDCIKSAARLIQNMDATTEPCTDFFKYACGGWLKRNVIPETSSRYGNFDILRDELEVVLKDVLQEPKTEDIVAVQKAKALYRSCINESAIDSRGGEPLLKLLPDIYGWPVATENWEQKYGASWTAEKAIAQLNSKYGKKVLINLFVGTDDKNSVNHVIHIDQPRLGLPSRDYYECTGIYKEACTAYVDFMISVARLIRQEERLPIDENQLALEMNKVMELEKEIANATAKPEDRNDPMLLYNKMTLAQIQNNFSLEINGKPFSWLNFTNEIMSTVNISITNEEDVVVYAPEYLTKLKPILTKYSARDLQNLMSWRFIMDLVSSLSRTYKESRNAFRKALYGTTSETATWRRCANYVNGNMENAVGRLYVEAAFAGESKHVVEDLIAQIREVFIQTLDDLTWMDAETKKRAEEKALAIKERIGYPDDIVSNDNKLNNEYLELNYKEDEYFENIIQNLKFSQSKQLKKLREKVDKDEWISGAAVVNAFYSSGRNQIVFPAGILQPPFFSAQQSNSLNYGGIGMVIGHEITHGFDDNGRNFNKDGDLVDWWTQQSASNFKEQSQCMVYQYGNFSWDLAGGQHLNGINTLGENIADNGGLGQAYRAYQNYIKKNGEEKLLPGLDLNHKQLFFLNFAQVWCGTYRPEYAVNSIKTDVHSPGNFRIIGTLQNSAEFSEAFHCRKNSYMNPEKKCRVW
Almost no proteolysis after 4 days.: all assays above
